Four substances from patent publication US20040109887A1 can be followed below.

Broadly, the EC50 is the concentration at which the effect is half-maximal. Lower therefore signals higher potency in that assay.

For experiment [1], the target named is HXBc2 gp160?CT glycoprotein (HIV-1 isolate HXBc2; bovine rhodopsin) (UniProt P04578). The experiment can be described thus: FACS titration, anti-human IgG PE.
For experiment [2], the target named is cleavage-defective YU2 gp160?CT glycoprotein (HIV-1 isolate YU2; bovine rhodopsin) (UniProt P35961). The experiment can be described thus: FACS on PLs, with against without sCD4 preincubation (without = 100%).
For experiment [3], the target named is Cleavage-competent YU2 gp160?CT glycoprotein (HIV-1 isolate YU2; bovine rhodopsin) (UniProt P35961). Put plainly: FACS on 293T cells, with against without sCD4 preincubation (without = 100%).
Experiment [4] concerns the target cleavage-defective YU2 gp160?CT glycoprotein (HIV-1 isolate YU2; bovine rhodopsin) (UniProt P35961). The experiment can be described thus: FACS titration; saturation not reached with C11.
The target is the same in experiment [5]. The experiment can be described thus: FACS titration on gp160?CT PLs / 293T cells, half-maximal binding.

As to 2F5 antibody, the fold higher affinity on PLs with a reconstituted membrane than on beads without a membrane in experiment [1] worked out at 10 fold.

17b antibody: the results for the % increase of 17b binding after preincubation with sCD4 in experiment [2] and in experiment [3] were 46% and 63%, respectively.

For C11 antibody, the fold lower affinity than IgG1b12 in experiment [4] is > 10 fold.

Regarding IgG1b12 antibody, the concentration giving a half-maximal response (EC50) in experiment [5] was 6 nM.
